“Also recorded” adds a separate entry of the source. No end group written: not given here.
Experiments:
Format in all cases: cell-based, Human
MCF7 cells [1] = test: Internalization and intracellular distribution of FITC-labeled peptides, confocal microscopy; conditions: MCF7, FITC-labeled peptides 30 μM, 30 min, washed three times with PBS, Figure 6A
Procedure: (§1) Figure 6 The un-tagged HEXIM1 BR peptide fails to enter cells by itself (A) MCF7 cells were cultured on glass slides overnight before incubation with the indicated FITC-labeled peptides (30 μM) for 30 min and subsequently analyzed by laser scanning confocal microscopy. Nuclei were visualized by DAPI. Cells treated with vehicle, DMSO (0.5%) were used as control. Representative fluorescent images are shown (bar, 10 μm). (B) The FITC-positive cells were quantified by flow cytometry. Data represent percentage of fluorescence-positive cells in total cell population. Results were summarized as mean ± SD of three independent experiments (***P < 0.0001, Student's t test).
To determine the ability of FITC-labeled peptides to enter the cells and to visualize intracellular distribution of the peptides, MCF7 cells were plated on 4-chamber glass cover slides (Lab-Tek) to adhere overnight, incubated with FITC-labeled peptides (30 μM) for 30 min, and then washed three times with PBS before being fixed and mounted with DAPI-containing mounting solution (Vectashield). Images were acquired using a Nikon A1R confocal laser scanning microscope equipped with a 60 × oil-immersion objective lens (SBIC-Nikon Imaging Centre).

MCF7 cells [2] = test: Internalized fluorescent peptide by flow cytometry; conditions: MCF7, FITC-labeled peptides 30 μM, 30 min at 37°C, washed, trypsinized, mean of three independent experiments, Figure 6B
Procedure: as §1
MCF7 cells were plated on 6-cm culture dish to allow overnight adherence. FITC-labeled peptides (30 μM) were added to the cells, incubated for 30 min at 37°C, and subsequently washed three times with PBS. The cells were then trypsinized, collected by centrifugation, and finally resuspended in 500 μl ice-cold 2% FBS-containing PBS for flow cytometry analysis.

MDA-MB-231 cells = test: Cell viability (CellTiter-Glo); conditions: MDA-MB-231, different concentrations overnight, Figure 5B, 5D, S2
Procedure: (§2) Cells were plated in clear-bottomed white walled 96-well plates (Corning) and incubated overnight. Cells were treated with indicated peptides in 1% FBS-containing media for overnight or indicated timings at 37°C. Cell viability was measured with CellTiter-Glo reagent (Promega) according to the manufacturer's instructions. For cytotoxicity assay, cells were plated in black walled 96-well plates (Corning) to allow them to adhere overnight. Upon treatment with a pan-caspase inhibitor, z-VAD-Fmk (100 μM) (Sigma) and subsequent treatment with LTV-tagged peptides, cytotoxicity induced was determined by CellTox cytotoxicity assay (Promega) 30 minutes after addition of peptides according to the manufacturer's instructions. Luminescence was determined using an Infinite 200 multiplate reader (Tecan).

MCF7 cells [3] = test: Cell viability (CellTiter-Glo); conditions: MCF7, different concentrations overnight, Figure 5A, 5C
Procedure: as §2

Substance | internalization and intracellular distribution of fluorescent-labeled peptide (MCF7 cells [1]) | percentage of fluorescence-positive cells in total cell population (internalized fluorescent peptide) (MCF7 cells [2]) | cell viability (MDA-MB-231 cells) | cell viability (MCF7 cells [3])
BR-FITC: fluorescent-labeled (FITC) BR peptide (QLGKKKHRRRPSKKKRHW; also: FITC label; UniProt O94992 147-164, looked up, fragment) | no fluorescent signal was observed | no entry | – | –
BR: untagged peptide from the basic region of HEXIM1 containing the HDM2 ubiquitination residues (a.a. 147–164) (QLGKKKHRRRPSKKKRHW; UniProt O94992 147-164, looked up, fragment) | – | – | had no effect on cell viability; also recorded: remained highly viable | had no effect on cell viability
